The chains are these.
B1: TPR t1 (parent)
chain: GACCAAUCUGCCCUCAGAGCUCGAGAACAUCUUCGGAUGCAGAGGAGGCAGGCUUCGGUGGCGCGAUAGCGCCAACGUCCUCAACCUCCAAUGCAUCCCACCACAUGAUGAUGCCUGAAGAGCCUUGGUUUUUUG

The data set covers variants of B1. Kind of data set: polymerase ribozyme fitness, log enrichment relative to wild type (log ratio); higher = more active; in vitro selection for triplet polymerase activity. The essentials:
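Both subunits of a heterodimeric triplet polymerase ribozyme were given their own mutant library, built by PCR and transcribed. Each library was annealed with a biotinylated primer, the partner subunit and triplets, incubated frozen at −7 °C, and its extended constructs gel-excised, captured on streptavidin beads and amplified by RT-PCR, all in one round done in triplicate. Fitness is the logarithm of genotype enrichment relative to wild-type enrichment, with replicates averaged by inverse-variance weighting. That logarithm is base 2, and Illumina-sequenced genotypes needed ≥10 input reads and ≥1 read per output.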
In the case of C82A C102U, the “polymerase ribozyme fitness (log ratio)” value was -1.82.
As to C89U C124U, the “polymerase ribozyme fitness (log ratio)” value is 1.37.
Next, C89U C124A: 0.152.
Take U92A U131G: the “polymerase ribozyme fitness (log ratio)” value is -2.59.
Next, C86U G110A A111C: -4.3; C89A A111U G113A: -5.69.
For U81A G127U, the “polymerase ribozyme fitness (log ratio)” value is -2.76.
In the case of C85G G110C, the “polymerase ribozyme fitness (log ratio)” value is -4.96.
As for C89G G93A C94G C124G G128C, the figure is -7.66.
As for A91C G127C, the figure is -2.93.
Next, A83U C101G: -1.74; U81C G93A C123A: -0.322.
Turning to C85U A118G, the “polymerase ribozyme fitness (log ratio)” value was -0.773.
Regarding C82G C101U C115A U125A, the “polymerase ribozyme fitness (log ratio)” value is -1.73.
As for A90C C97A C99G G113A G122U, the figure is -7.3.
As for G93A A111U G122C, the figure is -4.63.
For the variant A90G C114A, the “polymerase ribozyme fitness (log ratio)” value was -1.4.
As for C85G C99U, the figure is -4.35; as for C86U U112A C123U, 0.628.
With U81G U131A, the “polymerase ribozyme fitness (log ratio)” value was -3.6.
For the variant C82G G127A, the “polymerase ribozyme fitness (log ratio)” value was -2.
As to A91G C102A C104A U109A, the “polymerase ribozyme fitness (log ratio)” value was -5.59.
Take A91G C101U G110A: the “polymerase ribozyme fitness (log ratio)” value was -2.85.
Next, C85U G110C C115U A121G: -6.18; A83U C89A U96A: -2.34.
With U81A A105U U132C, the “polymerase ribozyme fitness (log ratio)” value was -2.04.
Next, A91C C98G G113A: -5.51; C88G G120A A121C G135U: -0.939.
Regarding C86G G128A, the “polymerase ribozyme fitness (log ratio)” value was -2.15.
As for C88A A111U, the figure is -4.33; as for C86U A100U G110A U129G, -3.54; as for U87A G120A, 0.663.
As for A84U C115G, the figure is -3.83.
Regarding C82U C115U, the “polymerase ribozyme fitness (log ratio)” value was -1.02.
As for C82U C115A, the “polymerase ribozyme fitness (log ratio)” value was -0.595.
Next, C85A G122A: -1.14; C88A U96C: -0.897; C88A U96G: -0.386.
Next, A90U C97U: -2.38; A83U: -0.119; A83C: -0.225.
A83G: the “polymerase ribozyme fitness (log ratio)” value is -0.489.
As for C85G C88U, the figure is -0.339.
As to U81G C88A, the “polymerase ribozyme fitness (log ratio)” value is -2.78.
On to C88A, for which the “polymerase ribozyme fitness (log ratio)” value was -0.325.
As for C88G, the figure is -0.581; as for C88U, -0.0459.
As for A84G C85U, the figure is 0.384.
Consider C88A C101U, for which the “polymerase ribozyme fitness (log ratio)” value was -0.505.
As to A84C C88A, the “polymerase ribozyme fitness (log ratio)” value is -0.593.
As for C82U G127U, the “polymerase ribozyme fitness (log ratio)” value is -0.724.
As for A91G C104A, the “polymerase ribozyme fitness (log ratio)” value was -2.34.
Turning to A83G C86G G127U U132C, the “polymerase ribozyme fitness (log ratio)” value is -2.25.
Next, C88G G110C: -5.26; C89U A90G: 0.141.
With A83C C85A C115A G117A, the “polymerase ribozyme fitness (log ratio)” value was -6.05.
For the variant C82A C89G C101A C102A U112C C123A, the “polymerase ribozyme fitness (log ratio)” value is -6.34.
Next, C89G C94G: -3.06; U87G U109A: -3.08.
For the variant A83U C88A G128C, the “polymerase ribozyme fitness (log ratio)” value is -3.29.
Next, C89A C124A: 0.985; A84C C89A G113A: -2.63; C86U G107U: -5.23.
Take C88G C102U G117U: the “polymerase ribozyme fitness (log ratio)” value is -6.89.
Next, A90C U106A A108G: -2.24.
Consider C82G A90U, for which the “polymerase ribozyme fitness (log ratio)” value is -2.11.
Next, C86U G110U: -1.02; U87A U106A G113A: -2.17.
Consider A91U C101A, for which the “polymerase ribozyme fitness (log ratio)” value was -2.72.
Next, C82A C98A C114U: -5.87; C86A U112A: 0.808.
Take A90U G93U: the “polymerase ribozyme fitness (log ratio)” value was -1.11.
As for C85G A118U U126G, the figure is -3.39.
As to A90C C97U G113A, the “polymerase ribozyme fitness (log ratio)” value was -2.12.
C86U C124A: the “polymerase ribozyme fitness (log ratio)” value came out at 1.32.
As for C89A G120U, the figure is -1.79; as for C82U U109G U130G, -6.23.
Next, A84U G110U: -1.34.
As for C88U G120A G128A, the figure is -1.29.
As for C85U C98U, the “polymerase ribozyme fitness (log ratio)” value was -1.57.
Next, U87C A95U C102A C124A G128C: -3.08.
Next, C86U G93A C101G G122A: -3.73.
Next, C82A G93A: -0.17; A91U U132C: -1.79; C88U A100U G120A: -0.615.
As for A84G G93C G127U, the “polymerase ribozyme fitness (log ratio)” value was -1.68.
As for G93A C98U, the figure is -1.72; as for U81A U87A, -1.41; as for U87G A119G, 1.67.
Next, U81G G127C: -4.77.
As for U81G G122U C123G U129A, the figure is -4.51; as for A84G C86A U96C G113A, -2.94.
Regarding U87G U106G, the “polymerase ribozyme fitness (log ratio)” value was -1.41.
Consider G93A G128C, for which the “polymerase ribozyme fitness (log ratio)” value was -2.72.
As for G93A G128A, the figure is -1.95; as for A84G U106G, -3.32.
With C88G G128C, the “polymerase ribozyme fitness (log ratio)” value was -3.43.
Next, C85G C114U: -3.59; U87A C89U C123A C124G: 1.56; C89G G127U: -2.9.
On to C82A A103G, for which the “polymerase ribozyme fitness (log ratio)” value is -4.08.
Turning to C85U C124G, the “polymerase ribozyme fitness (log ratio)” value is 0.923.
As for C85U A100C, the figure is -1.76; as for C85U A100U, -1.79.
Next, A84U G93A C115G: -2.08; C88G G107A U130C: -6.86; C82U U112A U130G: 0.499.
As for C86G A91G, the figure is -1.96; as for U87G G120A, 0.0419; as for C88G U106G, -2.4.
In the case of C88G G107U A111C A121U U125A, the “polymerase ribozyme fitness (log ratio)” value was -3.56.
In the case of U81G A95G, the “polymerase ribozyme fitness (log ratio)” value is -4.01.
A90G U112G: the “polymerase ribozyme fitness (log ratio)” value came to 1.3.
For C80U C114G, the “polymerase ribozyme fitness (log ratio)” value was -3.48.
Next, C80U G120C G127C: -0.289; C85G U106G: -2.45; G93A C123G: 0.42.
Turning to C88U G120U, the “polymerase ribozyme fitness (log ratio)” value amounted to 0.291.
As for C88U G120C, the figure is 0.853.
As for C80U C115G, the “polymerase ribozyme fitness (log ratio)” value is -0.729.
In the case of C82U A83U A111U, the “polymerase ribozyme fitness (log ratio)” value is -3.12.
Next, C89G U92A G122A: -4.41.
On to C80U G135U, for which the “polymerase ribozyme fitness (log ratio)” value was -0.986.
As for U81A C115G, the figure is -2.4; as for C86A A111C, 0.315; as for C89U A105U, -2.8.
With C86G C88U A105G, the “polymerase ribozyme fitness (log ratio)” value was -4.95.
As for C88G U131C, the figure is -0.249; as for A83C C114G U132A, -2.52; as for U87C G110U, -0.496.
Regarding U87G G113C, the “polymerase ribozyme fitness (log ratio)” value is -2.26.
As for A91C C114G, the figure is -2.5; as for U87A A119U G128A U131G, -1.07.
On to A83G A84G C99U, for which the “polymerase ribozyme fitness (log ratio)” value was -5.16.
C86A U96C: the “polymerase ribozyme fitness (log ratio)” value is -0.678.
As for C85A A121C, the figure is 0.793.
As to C85G C94U C97U G120C, the “polymerase ribozyme fitness (log ratio)” value was -0.74.
In the case of C85A U112A C115U U130C, the “polymerase ribozyme fitness (log ratio)” value is -2.28.
With A84U G110C U130C, the “polymerase ribozyme fitness (log ratio)” value was -4.16.
Turning to C82U U96G G127U, the “polymerase ribozyme fitness (log ratio)” value was -1.83.
With C88A U106A, the “polymerase ribozyme fitness (log ratio)” value is -0.303.
As for G93A G110A U112A, the figure is -2.76; as for U81A U106C G110A G113C C114U A119G, -5.29; as for A91G G110U, -2.66.
As for C80U G120U, the figure is -0.245; as for C80U G120C, 0.704.
Consider C88A C115U, for which the “polymerase ribozyme fitness (log ratio)” value was -0.599.
As for C80U G93A, the figure is -1.52; as for A91C C123A U133G, -1.07.
As for G93A C101U, the “polymerase ribozyme fitness (log ratio)” value is -1.15.
As for C88U A119G, the figure is 1.04; as for U92G C104G, -7.29.
As for C88A G135U, the figure is -0.929; as for C86U A91G C98U, -2.63; as for A90U C114G A118G, -3.15.
Next, A91U A111C: -2.44; U81G A84C G113A: -3.43; C82A C89A: -2.78.
Turning to A84U C86A U125G, the “polymerase ribozyme fitness (log ratio)” value is -1.97.
For the variant C85U U130A, the “polymerase ribozyme fitness (log ratio)” value was -1.86.
Turning to C86A U132C U133A, the “polymerase ribozyme fitness (log ratio)” value was -1.36.
As for C86U A111G C123A G127A, the figure is -2.33; as for C85A C115U, -2.7; as for A83U G127U, -1.08.
As for U87C C99A C101U U116C, the figure is -6.81; as for C89G G113C G122U, -2.99.
C89A C94A C104U G110A: the “polymerase ribozyme fitness (log ratio)” value is -4.47.

The record behind these values is the RNAGym collection of RNA variant scans (doi:10.1073/pnas.2313332121).
